Experimental findings from patent publication US20250361299A1 (ZHEJIANG SHIMAI PHARMACEUTICAL, published 2025) are described below.

This test deals with T1, Recombinant human EGFR (human, UniProt P00533 25-645).
T1 construct: Bought protein coated on ELISA plates (100 ng per well); also called human antigen EGFR
Put plainly: ELISA on coated human EGFR, antibody not treated with uPA. The protocol: To determine the binding affinity of proBiTEs to CD3 and EGFR, ELISA was performed according to standard protocols. Briefly, human antigen CD3 and EGFR were coated on Corning EIA/RIA high-binding 96-well plates (Corning Inc.) at 100 ng per well overnight at 4° C. and blocked with 3% nonfat milk in PBS (pH7.4). For cleavage with urokinase (uPA), 30 μg antibodies were mixed with or without 0.3 μg recombinant human uPA (50 μg/mL) (Sino Biological) in PBS (pH7.4) and incubated at room temperature for 4 hour. Then the mixture with or without uPA was diluted in a fivefold gradient and incubated at room temperature for 2 h. The plates were washed with PBS containing 1% nonfat milk. Bound antibodies were detected by HRP-conjugated streptavidin (Sigma). The assay was developed at room temperature with TMB substrate (Solarbio) and monitored at 450 nm with a microplate reader. The half-maximal binding (EC₅₀) was calculated by fitting the data to the Langmuir adsorption isotherm.
On the technique in general: An ELISA detects its analyte on a solid surface through an enzyme-linked reagent.

B1: 1.6.1M-Pa proBiTE (bispecific antibody)
heavy: QDGNEEMGGGSQDGNEEMGGIGGGSGGGGSGLSGRSDNHGGGGSEVQLVESGGGLVQPGGSLRLSCAASGFTFNTYAMNWVRQAPGKGLEWVARIRSKYNNYATYYADSVKGRFTISRDDSKNTLYLQMNSLRAEDTAVYYCARHGNFGSSYVSYFAYWGQGTTVTVSSASTKGPSVFPLAPSSKSTSGGTAALGCLVKDYFPEPVTVSWNSGALTSGVHTFPAVLQSSGLYSLSSVVTVPSSSLGTQTYICNVNHKPSNTKVDKKVEPKSCPPCPAPEAAGAPSVFLFPPKPKDTLMISRTPEVTCVVVDVSHEDPEVKFNWYVDGVEVHNAKTKPREEQYNSTYRVVSVLTVLHQDWLNGKEYKCKVSNKALPAPIEKTISKAKGQPREPQVYTLPPSRDELTKNQVSLLCLVKGFYPSDIAVEWESNGQPENNYKTTPPVLDSDGSFFLHSKLTVDKSRWQQGNVFSCSVMHEALHNHYTQKSLSLSPGK
light: QVQLQESGPGLVKPSETLSLTCTVSGGSVSSGDYYWTWIRQSPGKGLEWIGHIYYSGNTNYNPSLKSRLTISIDTSKTQFSLKLSSVTAADTAIYYCVRDRVTGAFDIWGQGTMVTVSSGGGGSGGGGSGGGGSGGGGSDIQMTQSPSSLSASVGDRVTITCQASQDISNYLNWYQQKPGKAPKLLIYDASNLETGVPSRFSGSGSGTDFTFTISSLQPEDIATYFCQHFDHLPLAFGGGTKVEIKGGGGSGGGGSGGGGSGGGGSEIVVTQSPATLSVSPGERATLSCRSSTGAVTTSNYANWVQQKPGQAPRGLIGGANKRAPGVPARFSGSLSGDEATLTISSLQSEDFAVYYCALWYSNLWVFGQGTKLEIKRTVAAPSVFIFPPSDEQLKSGTASVVCLLNNFYPREAKVQWKVDNALQSGNSQESVTEQDSKDSTYSLSSTLTLSKADYEKHKVYACEVTHQGLSSPVTKSFNRGECPPCPAPEAAGAPSVFLFPPKPKDTLMISRTPEVTCVVVDVSHEDPEVKFNWYVDGVEVHNAKTKPREEQYNSTYRVVSVLTVLHQDWLNGKEYKCKVSNKALPAPIEKTISKAKGQPREPQVYTLPPSRDELTKNQVSLLCLVKGFYPSDIAVEWESNGQPENNYKTTPPVLDSDGSFFLHSKLTVDKSRWQQGNVFSCSVMHEALHNHYTQKSLSLSPGK
notes: Intact, not treated with uPA; As 1.6.1M proBiTE but with a panitumumab anti-EGFR scFv in the light chain
Take B1: the binding result is recorded as “binds”.

B2: 1.6.1M-2-1-Pa proBiTE (bispecific antibody)
heavy: QDGNEEMGGGSQDGNEEMGGIGGGSGGGGSGLSGRSDNHGGLSGRSDNHGGSEVQLVESGGGLVQPGGSLRLSCAASGFTFNTYAMNWVRQAPGKGLEWVARIRSKYNNYATYYADSVKGRFTISRDDSKNTLYLQMNSLRAEDTAVYYCARHGNFGSSYVSYFAYWGQGTTVTVSSASTKGPSVFPLAPSSKSTSGGTAALGCLVKDYFPEPVTVSWNSGALTSGVHTFPAVLQSSGLYSLSSVVTVPSSSLGTQTYICNVNHKPSNTKVDKKVEPKSCPPCPAPEAAGAPSVFLFPPKPKDTLMISRTPEVTCVVVDVSHEDPEVKFNWYVDGVEVHNAKTKPREEQYNSTYRVVSVLTVLHQDWLNGKEYKCKVSNKALPAPIEKTISKAKGQPREPQVYTLPPSRDELTKNQVSLLCLVKGFYPSDIAVEWESNGQPENNYKTTPPVLDSDGSFFLHSKLTVDKSRWQQGNVFSCSVMHEALHNHYTQKSLSLSPGK
light: QVQLQESGPGLVKPSETLSLTCTVSGGSVSSGDYYWTWIRQSPGKGLEWIGHIYYSGNTNYNPSLKSRLTISIDTSKTQFSLKLSSVTAADTAIYYCVRDRVTGAFDIWGQGTMVTVSSGGGGSGGGGSGGGGSGGGGSDIQMTQSPSSLSASVGDRVTITCQASQDISNYLNWYQQKPGKAPKLLIYDASNLETGVPSRFSGSGSGTDFTFTISSLQPEDIATYFCQHFDHLPLAFGGGTKVEIKGGGGSGGGGSGGGGSGGGGSEIVVTQSPATLSVSPGERATLSCRSSTGAVTTSNYANWVQQKPGQAPRGLIGGANKRAPGVPARFSGSLSGDEATLTISSLQSEDFAVYYCALWYSNLWVFGQGTKLEIKRTVAAPSVFIFPPSDEQLKSGTASVVCLLNNFYPREAKVQWKVDNALQSGNSQESVTEQDSKDSTYSLSSTLTLSKADYEKHKVYACEVTHQGLSSPVTKSFNRGECPPCPAPEAAGAPSVFLFPPKPKDTLMISRTPEVTCVVVDVSHEDPEVKFNWYVDGVEVHNAKTKPREEQYNSTYRVVSVLTVLHQDWLNGKEYKCKVSNKALPAPIEKTISKAKGQPREPQVYTLPPSRDELTKNQVSLLCLVKGFYPSDIAVEWESNGQPENNYKTTPPVLDSDGSFFLHSKLTVDKSRWQQGNVFSCSVMHEALHNHYTQKSLSLSPGK
notes: Intact, not treated with uPA
Consider B2, for which the binding result is listed as “binds”.
